Each binder was assayed against ARHGEF12, Q9NZN5-2 (assay: holdup assay). Settings: plain residues with an end cap or a label only (N-terminal biotin on a linker: ttds).
Sequence of ARHGEF12, Q9NZN5-2 (Q9NZN5 other isoform, or with tags, fused parts or gaps): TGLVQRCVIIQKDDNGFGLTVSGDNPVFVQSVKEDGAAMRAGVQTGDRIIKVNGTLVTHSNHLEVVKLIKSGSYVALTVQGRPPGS
Set-up: key: below the threshold = too weak to quantify, mostly under pKd 3.1 to 4
For CNTVTVETVV [MAS1, P04201], the pKd was “below the threshold”.
A pKd of 4.2 was found for DEDQHTQITKV [PTEN, P60484] in this work.

What follows are binders tested against DLG2_2, Q15700 (assay: holdup assay). Settings: plain residues with an end cap or a label only (N-terminal biotin on a linker: ttds).
Set-up: key: below the threshold = too weak to quantify, mostly under pKd 3.1 to 4
A pKd of 4.19 was found for CNTVTVETVV [MAS1, P04201] in this work.
A pKd of 3.55 was found for DEDQHTQITKV [PTEN, P60484] in this work.

What follows are binders tested against DLG2_3, Q15700 (assay: holdup assay). Settings: plain residues with an end cap or a label only (N-terminal biotin on a linker: ttds).
Set-up: key: below the threshold = too weak to quantify, mostly under pKd 3.1 to 4
With CNTVTVETVV [MAS1, P04201] the pKd was “below the threshold”.
With DEDQHTQITKV [PTEN, P60484] the pKd was “below the threshold”.

The binders below were run against T1, DLG3_1, Q92796 (assay: holdup assay). Settings: plain residues with an end cap or a label only (N-terminal biotin on a linker: ttds).
T1 sequence (Q92796 125-227, limits assumed, looked up): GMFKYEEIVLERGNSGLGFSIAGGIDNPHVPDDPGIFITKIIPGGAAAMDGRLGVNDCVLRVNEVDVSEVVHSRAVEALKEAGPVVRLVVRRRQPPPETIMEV
Set-up: key: below the threshold = too weak to quantify, mostly under pKd 3.1 to 4
A pKd of 3.51 was found for CNTVTVETVV [MAS1, P04201] in this work.
In the case of DEDQHTQITKV [PTEN, P60484], the pKd is reported as “below the threshold”.

These binders were tested against FRMPD2_1, Q68DX3 (assay: holdup assay). Settings: plain residues with an end cap or a label only (N-terminal biotin on a linker: ttds).
Sequence of FRMPD2_1, Q68DX3 (Q68DX3 770-861): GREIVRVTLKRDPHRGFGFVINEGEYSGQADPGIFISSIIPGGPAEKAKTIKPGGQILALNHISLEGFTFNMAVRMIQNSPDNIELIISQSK
Set-up: key: below the threshold = too weak to quantify, mostly under pKd 3.1 to 4
In the case of CNTVTVETVV [MAS1, P04201], the pKd is reported as “below the threshold”.
DEDQHTQITKV [PTEN, P60484] was tested, and the pKd was “below the threshold”.

The binders below were run against GORASP2, Q9H8Y8 (assay: holdup assay). Settings: plain residues with an end cap or a label only (N-terminal biotin on a linker: ttds).
Set-up: key: below the threshold = too weak to quantify, mostly under pKd 3.1 to 4
For CNTVTVETVV [MAS1, P04201], the pKd was “below the threshold”.
A pKd of 3.82 was found for DEDQHTQITKV [PTEN, P60484] in this work.

Each binder was assayed against GRIP2_3, Q9C0E4 (assay: holdup assay). Settings: plain residues with an end cap or a label only (N-terminal biotin on a linker: ttds).
Sequence of GRIP2_3, Q9C0E4 (Q9C0E4 238-339): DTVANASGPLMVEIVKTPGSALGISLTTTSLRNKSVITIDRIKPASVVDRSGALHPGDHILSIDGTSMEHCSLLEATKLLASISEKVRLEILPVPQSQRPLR
Set-up: key: below the threshold = too weak to quantify, mostly under pKd 3.1 to 4
CNTVTVETVV [MAS1, P04201] was tested, and the pKd was “below the threshold”.
A pKd of 3.56 was found for DEDQHTQITKV [PTEN, P60484] in this work.

The binders below were run against GRIP2_5, Q9C0E4 (assay: holdup assay). Settings: plain residues with an end cap or a label only (N-terminal biotin on a linker: ttds).
Sequence of GRIP2_5, Q9C0E4 (Q9C0E4 544-642): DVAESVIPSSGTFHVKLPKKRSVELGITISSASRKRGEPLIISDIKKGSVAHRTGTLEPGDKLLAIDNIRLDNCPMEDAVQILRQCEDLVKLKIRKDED
Set-up: key: below the threshold = too weak to quantify, mostly under pKd 3.1 to 4
With CNTVTVETVV [MAS1, P04201] the pKd was “below the threshold”.
DEDQHTQITKV [PTEN, P60484] was tested, and the pKd was “below the threshold”.

Each binder was assayed against GRIP2_6, Q9C0E4 (assay: holdup assay). Settings: plain residues with an end cap or a label only (N-terminal biotin on a linker: ttds).
Sequence of GRIP2_6, Q9C0E4 (Q9C0E4 648-740): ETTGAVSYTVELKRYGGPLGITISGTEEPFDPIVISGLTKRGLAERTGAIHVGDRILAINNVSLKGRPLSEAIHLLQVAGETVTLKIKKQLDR
Set-up: key: below the threshold = too weak to quantify, mostly under pKd 3.1 to 4
For CNTVTVETVV [MAS1, P04201], the pKd was “below the threshold”.
A pKd of 3.49 was found for DEDQHTQITKV [PTEN, P60484] in this work.

These binders were tested against T2, HTRA4, P83105 (assay: holdup assay). Settings: plain residues with an end cap or a label only (N-terminal biotin on a linker: ttds).
T2 sequence (P83105 378-476, limits assumed, looked up): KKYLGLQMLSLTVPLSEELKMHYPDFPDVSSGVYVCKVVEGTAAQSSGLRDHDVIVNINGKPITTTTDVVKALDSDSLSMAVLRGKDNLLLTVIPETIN
Set-up: key: below the threshold = too weak to quantify, mostly under pKd 3.1 to 4
For CNTVTVETVV [MAS1, P04201], the pKd was “below the threshold”.
A pKd of 3.62 was found for DEDQHTQITKV [PTEN, P60484] in this work.

What follows are binders tested against Inadl_1, Q8NI35 (assay: holdup assay). Settings: plain residues with an end cap or a label only (N-terminal biotin on a linker: ttds).
Sequence of Inadl_1, Q8NI35 (Q8NI35 113-229): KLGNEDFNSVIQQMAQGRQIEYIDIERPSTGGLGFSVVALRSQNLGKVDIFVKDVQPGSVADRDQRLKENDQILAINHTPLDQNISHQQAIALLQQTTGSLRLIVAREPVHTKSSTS
Set-up: key: below the threshold = too weak to quantify, mostly under pKd 3.1 to 4
For CNTVTVETVV [MAS1, P04201], the pKd was “below the threshold”.
A pKd of 3.77 was found for DEDQHTQITKV [PTEN, P60484] in this work.

The binders below were run against LDB3, O75112 (assay: holdup assay). Settings: plain residues with an end cap or a label only (N-terminal biotin on a linker: ttds).
Sequence of LDB3, O75112 (O75112 1-94): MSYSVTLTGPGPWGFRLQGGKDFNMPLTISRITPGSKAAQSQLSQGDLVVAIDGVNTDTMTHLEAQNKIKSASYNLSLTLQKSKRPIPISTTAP
Set-up: key: below the threshold = too weak to quantify, mostly under pKd 3.1 to 4
CNTVTVETVV [MAS1, P04201] was tested, and the pKd was “below the threshold”.
For DEDQHTQITKV [PTEN, P60484], the pKd was “below the threshold”.

What follows are binders tested against T3, LIN7B, Q9HAP6 (assay: holdup assay). Settings: plain residues with an end cap or a label only (N-terminal biotin on a linker: ttds).
T3 sequence (Q9HAP6 88-185, limits assumed, looked up): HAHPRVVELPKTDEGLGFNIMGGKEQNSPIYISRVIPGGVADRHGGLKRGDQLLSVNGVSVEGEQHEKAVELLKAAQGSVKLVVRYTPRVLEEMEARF
Set-up: key: below the threshold = too weak to quantify, mostly under pKd 3.1 to 4
CNTVTVETVV [MAS1, P04201] was tested, and the pKd was “below the threshold”.
A pKd of 3.49 was found for DEDQHTQITKV [PTEN, P60484] in this work.

Each binder was assayed against LNX1_3, Q8TBB1 (assay: holdup assay). Settings: plain residues with an end cap or a label only (N-terminal biotin on a linker: ttds).
Sequence of LNX1_3, Q8TBB1 (Q8TBB1 500-596): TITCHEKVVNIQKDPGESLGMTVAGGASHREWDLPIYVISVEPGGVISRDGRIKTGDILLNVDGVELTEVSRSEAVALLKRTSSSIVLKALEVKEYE
Set-up: key: below the threshold = too weak to quantify, mostly under pKd 3.1 to 4
CNTVTVETVV [MAS1, P04201] was tested, and the pKd was “below the threshold”.
In the case of DEDQHTQITKV [PTEN, P60484], the pKd is reported as “below the threshold”.

What follows are binders tested against T4, LRRC7, Q96NW7 (assay: holdup assay). Settings: plain residues with an end cap or a label only (N-terminal biotin on a linker: ttds).
T4 sequence (Q96NW7 1440-1537, limits assumed, looked up): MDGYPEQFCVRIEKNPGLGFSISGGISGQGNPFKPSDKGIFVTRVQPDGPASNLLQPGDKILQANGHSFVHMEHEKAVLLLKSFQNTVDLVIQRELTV
Set-up: key: below the threshold = too weak to quantify, mostly under pKd 3.1 to 4
In the case of CNTVTVETVV [MAS1, P04201], the pKd is reported as “below the threshold”.
In the case of DEDQHTQITKV [PTEN, P60484], the pKd is reported as “below the threshold”.

These binders were tested against MAST2, Q6P0Q8 (assay: holdup assay). Settings: plain residues with an end cap or a label only (N-terminal biotin on a linker: ttds).
Sequence of MAST2, Q6P0Q8 (Q6P0Q8 1099-1202): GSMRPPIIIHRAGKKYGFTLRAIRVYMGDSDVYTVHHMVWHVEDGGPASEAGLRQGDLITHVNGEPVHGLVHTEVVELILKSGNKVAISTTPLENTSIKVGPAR
Set-up: key: below the threshold = too weak to quantify, mostly under pKd 3.1 to 4
A pKd of 3.92 was found for CNTVTVETVV [MAS1, P04201] in this work.
A pKd of 5.24 was found for DEDQHTQITKV [PTEN, P60484] in this work.

Each binder was assayed against T5, MPP2, Q14168 (assay: holdup assay). Settings: plain residues with an end cap or a label only (N-terminal biotin on a linker: ttds).
T5 sequence (Q14168 180-250, limits assumed, looked up): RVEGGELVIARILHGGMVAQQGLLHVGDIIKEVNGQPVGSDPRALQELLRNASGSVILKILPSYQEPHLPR
Set-up: key: below the threshold = too weak to quantify, mostly under pKd 3.1 to 4
With CNTVTVETVV [MAS1, P04201] the pKd was “below the threshold”.
For DEDQHTQITKV [PTEN, P60484], the pKd was “below the threshold”.

These binders were tested against T6, MPP6, Q9NZW5 (assay: holdup assay). Settings: plain residues with an end cap or a label only (N-terminal biotin on a linker: ttds).
T6 sequence (Q9NZW5 125-219, limits assumed, looked up): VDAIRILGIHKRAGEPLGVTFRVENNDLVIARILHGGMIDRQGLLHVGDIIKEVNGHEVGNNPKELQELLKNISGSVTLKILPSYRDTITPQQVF
Set-up: key: below the threshold = too weak to quantify, mostly under pKd 3.1 to 4
A pKd of 3.54 was found for CNTVTVETVV [MAS1, P04201] in this work.
For DEDQHTQITKV [PTEN, P60484], the pKd was “below the threshold”.

Each binder was assayed against T7, NHERF3_1, Q5T2W1 (assay: holdup assay). Settings: plain residues with an end cap or a label only (N-terminal biotin on a linker: ttds).
T7 sequence (Q5T2W1 4-100, limits assumed, looked up): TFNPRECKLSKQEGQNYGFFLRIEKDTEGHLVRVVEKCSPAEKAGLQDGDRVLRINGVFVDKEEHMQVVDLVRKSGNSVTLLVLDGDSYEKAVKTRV
Set-up: key: below the threshold = too weak to quantify, mostly under pKd 3.1 to 4
A pKd of 3.74 was found for CNTVTVETVV [MAS1, P04201] in this work.
A pKd of 4.03 was found for DEDQHTQITKV [PTEN, P60484] in this work.

What follows are binders tested against T8, NHERF3_4, Q5T2W1 (assay: holdup assay). Settings: plain residues with an end cap or a label only (N-terminal biotin on a linker: ttds).
T8 sequence (Q5T2W1 373-468, limits assumed, looked up): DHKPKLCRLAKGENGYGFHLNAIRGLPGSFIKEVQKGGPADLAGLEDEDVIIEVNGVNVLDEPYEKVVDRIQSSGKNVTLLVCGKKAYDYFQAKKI
Set-up: key: below the threshold = too weak to quantify, mostly under pKd 3.1 to 4
A pKd of 3.54 was found for CNTVTVETVV [MAS1, P04201] in this work.
A pKd of 3.53 was found for DEDQHTQITKV [PTEN, P60484] in this work.

Each binder was assayed against PDLIM1, O00151 (assay: holdup assay). Settings: plain residues with an end cap or a label only (N-terminal biotin on a linker: ttds).
Sequence of PDLIM1, O00151 (O00151 1-87): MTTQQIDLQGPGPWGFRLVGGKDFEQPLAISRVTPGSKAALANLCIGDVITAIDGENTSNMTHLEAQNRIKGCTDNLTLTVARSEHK
Set-up: key: below the threshold = too weak to quantify, mostly under pKd 3.1 to 4
For CNTVTVETVV [MAS1, P04201], the pKd was “below the threshold”.
With DEDQHTQITKV [PTEN, P60484] the pKd was “below the threshold”.

These binders were tested against T9, PDZRN3_1, Q9UPQ7 (assay: holdup assay). Settings: plain residues with an end cap or a label only (N-terminal biotin on a linker: ttds).
T9 sequence (Q9UPQ7 244-349, limits assumed, looked up): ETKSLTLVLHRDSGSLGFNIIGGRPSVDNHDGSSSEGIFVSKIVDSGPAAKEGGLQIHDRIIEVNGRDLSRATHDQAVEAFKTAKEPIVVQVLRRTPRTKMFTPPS
Set-up: key: below the threshold = too weak to quantify, mostly under pKd 3.1 to 4
CNTVTVETVV [MAS1, P04201] was tested, and the pKd was “below the threshold”.
A pKd of 4.23 was found for DEDQHTQITKV [PTEN, P60484] in this work.

These binders were tested against SCRIB_2, Q14160 (assay: holdup assay). Settings: plain residues with an end cap or a label only (N-terminal biotin on a linker: ttds).
Sequence of SCRIB_2, Q14160 (Q14160 857-960): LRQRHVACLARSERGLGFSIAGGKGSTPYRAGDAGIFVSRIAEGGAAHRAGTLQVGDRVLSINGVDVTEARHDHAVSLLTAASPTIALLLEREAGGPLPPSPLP
Set-up: key: below the threshold = too weak to quantify, mostly under pKd 3.1 to 4
A pKd of 3.47 was found for CNTVTVETVV [MAS1, P04201] in this work.
A pKd of 3.73 was found for DEDQHTQITKV [PTEN, P60484] in this work.

These binders were tested against T10, SNTB1, Q13884 (assay: holdup assay). Settings: plain residues with an end cap or a label only (N-terminal biotin on a linker: ttds).
T10 sequence (Q13884 107-205, limits assumed, looked up): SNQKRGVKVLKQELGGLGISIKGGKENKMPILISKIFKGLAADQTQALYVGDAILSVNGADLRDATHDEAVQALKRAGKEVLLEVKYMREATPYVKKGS
Set-up: key: below the threshold = too weak to quantify, mostly under pKd 3.1 to 4
A pKd of 4.29 was found for CNTVTVETVV [MAS1, P04201] in this work.
A pKd of 4.08 was found for DEDQHTQITKV [PTEN, P60484] in this work.

The binders below were run against TJP1_2, Q07157 (assay: holdup assay). Settings: plain residues with an end cap or a label only (N-terminal biotin on a linker: ttds).
Sequence of TJP1_2, Q07157 (Q07157 181-274): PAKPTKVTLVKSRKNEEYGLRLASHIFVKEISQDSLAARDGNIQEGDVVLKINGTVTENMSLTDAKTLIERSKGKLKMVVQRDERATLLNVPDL
Set-up: key: below the threshold = too weak to quantify, mostly under pKd 3.1 to 4
In the case of CNTVTVETVV [MAS1, P04201], the pKd is reported as “below the threshold”.
In the case of DEDQHTQITKV [PTEN, P60484], the pKd is reported as “below the threshold”.

These binders were tested against T11, TX1BP3, O14907 (assay: holdup assay). Settings: plain residues with an end cap or a label only (N-terminal biotin on a linker: ttds).
T11 sequence (O14907 10-122, limits assumed, looked up): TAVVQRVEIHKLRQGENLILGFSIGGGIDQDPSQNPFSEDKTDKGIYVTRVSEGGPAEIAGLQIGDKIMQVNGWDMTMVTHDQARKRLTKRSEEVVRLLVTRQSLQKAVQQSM
Set-up: key: below the threshold = too weak to quantify, mostly under pKd 3.1 to 4
For CNTVTVETVV [MAS1, P04201], the pKd was “below the threshold”.
With DEDQHTQITKV [PTEN, P60484] the pKd was “below the threshold”.

From publication PMC9482650, “Quantitative fragmentomics allow affinity mapping of interactomes” (Nature Communications, 2022)
